The text below walks through data of US10280442B2, “Mutant sucrose phosphorylases with improved glycosylation activity towards polyphenols” (Universiteit Gent, priority 2015, dated 2019).

For data set [1], the system named is Thermoanaerobacterium thermosaccharolyticum sucrose phosphorylase (TtSPP), EC 2.4.1.329, wild type. Particulars: sucrose as glycosyl donor; Verhaeghe et al., 2014; cited from earlier work.
The target in data set [2] is T1, Thermoanaerobacterium thermosaccharolyticum sucrose phosphorylase (TtSPP) variant R134A, SEQ ID No 1 (Thermoanaerobacterium thermosaccharolyticum, UniProt D9TT09, R134A).
T1 sequence (D9TT09 1-488 R134A): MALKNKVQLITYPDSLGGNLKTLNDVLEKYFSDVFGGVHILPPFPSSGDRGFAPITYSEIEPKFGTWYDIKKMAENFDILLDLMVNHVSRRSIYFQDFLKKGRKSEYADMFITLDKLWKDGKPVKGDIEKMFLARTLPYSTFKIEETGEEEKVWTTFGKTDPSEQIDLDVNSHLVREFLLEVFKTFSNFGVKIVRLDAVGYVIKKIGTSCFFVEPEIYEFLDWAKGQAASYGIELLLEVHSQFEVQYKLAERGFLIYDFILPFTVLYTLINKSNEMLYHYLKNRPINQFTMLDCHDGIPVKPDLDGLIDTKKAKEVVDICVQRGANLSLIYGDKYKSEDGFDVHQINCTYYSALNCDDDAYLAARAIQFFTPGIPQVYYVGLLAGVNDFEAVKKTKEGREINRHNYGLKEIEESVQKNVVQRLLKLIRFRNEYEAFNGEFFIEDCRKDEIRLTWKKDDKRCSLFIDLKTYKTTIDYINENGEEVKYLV
Description: Kinetics of resveratrol glycosylation by variant R134A (co-substrate sucrose). The data set is classed as biochemical. Particulars: 1M sucrose as co-substrate, pH 6.5, 55° C., 20% AMMOENG 101. The protocol: (§1) Kinetics of enzyme variants on resveratrol were determined in an aqueous system containing 20% ionic liquid AMMOENG 101 (kindly provided by Evonik Industries AG) to dissolve the acceptor in a range of 0 to 200 mM. At this concentration of ionic liquid, the kinetic parameters of the enzyme for its natural substrates are not affected. Reactions were started combining 8.5 μM heat purified enzymes, 1 M sucrose and the respective acceptor-concentration at 55° C. To determine the initial velocity, samples were taken every 15 minutes for one hour, and inactivated by ten-fold dilution in pure ethanol. Product formation was again quantified by TLC and ImageJ analysis, using purified resveratrol 3-alpha-glucoside as TLC-standard and a respective standard curve for calculations. Kinetic parameters were calculated by non-linear regression of the Michaelis-Menten equation with Sigma Plot v13.0. All experiments were performed in triplicate to obtain kinetic parameters as reproducible mean values±standard errors.

For data set [3], the target named is Thermoanaerobacterium thermosaccharolyticum sucrose phosphorylase (TtSPP) variant R134V, SEQ ID No 2 (Thermoanaerobacterium thermosaccharolyticum, UniProt D9TT09, R134V). Description: Kinetics of resveratrol glycosylation by variant R134V (co-substrate sucrose). The data set is classed as biochemical. Particulars: 1M sucrose as co-substrate, pH 6.5, 55° C., 20% AMMOENG 101. The protocol:
as §1

Data set [4] is described as follows: Screening assay, transglycosylation activity on quercetin (semi-quantitative TLC). The data set is classed as biochemical. Particulars: 1 gL^−1 enzyme, 10 gL^−1 acceptor, 1 M sucrose, pH 6.5, 37° C., 16 h; FIG. 2 A. The procedure: (§2) Heat-purified proteins (for tests on different acceptors) or crude protein extracts (for library screening) were incubated to a final concentration of 1 gL^−1 with 10 gL^−1 acceptor and 1 M sucrose in 50 mM MOPS-buffer at pH 6.5. Assays were performed at 37° C. in microtiterplates shaking at 200 rpm. The product amounts were evaluated after 16 h by semi-quantitative TLC-analysis: 1 μl of each sample solution was spotted on a Silica-plate (TLC-Silica gel 60 F254, Merck Millipore) and run in a solvent system from ethylacetate:methanol:water (30:5:4, v/v/v). Plates were oxidized with 10% sulphuric acid and spot intensities were determined using ImagaJ.

Data set [5] can be described thus: Screening assay, transglycosylation activity on resveratrol (semi-quantitative TLC). The class given is biochemical. Particulars: 1 gL^−1 enzyme, 10 gL^−1 acceptor, 1 M sucrose, pH 6.5, 37° C., 16 h; FIG. 1. The procedure: as §2
Substrate in data set [6]: Oc1ccc(/C=C/c2cc(O)cc(O)c2)cc1
Description: Kinetics of resveratrol glycosylation by variant R134T (co-substrate sucrose). Particulars: other: variant R134T, 1M sucrose as co-substrate, pH 6.5, 55° C., 20% AMMOENG 101. The class given is biochemical, Thermoanaerobacterium thermosaccharolyticum. The procedure:
as §1

Data set [7] in a line: Qualitative survey of promiscuity on diverse polyphenolic acceptors. The data set is classed as biochemical. Particulars: FIG. 2 B. The protocol: as §2
Data set [8] in a line: Production of resveratrol 3-alpha-glucoside in aqueous system, followed by HPLC. The class given is biochemical. Particulars: 1 M sucrose, saturated suspension of 10 g·L^−1 resveratrol, 24 h, 55° C., pH 6.5. The procedure: Up-scaling of the transglycosylation reactions on resveratrol was performed up to 400 ml volumes. Reactors were stirred continuously at 55° C. for 24 h, and contained 1 M sucrose, 1 mgL^−1 enzyme and 10 gL^−1 of resveratrol (suspension) in 50 mM MOPS-buffer pH 6.5. Thanks to the quantitative conversion of resveratrol, its glucoside could be simply isolated by repeated ethylacetate extractions to a purity of >90%. The solvent was evaporated and the dried product analyzed by HPLC to determine purity and yield. To verify the identity of the compound by NMR and to produce the standards (TLC, H PLC), further purification was performed by column chromatography on silica gel (EtOAC:MeOH:H2O; 30:5:4; v/v/v) as described earlier (De Winter et al, 2013).
Reactions were followed for 24 h. […] Supernatants were filtered through a 0.2 μm polystyrol filter, diluted in DMSO and analyzed by HPLC using a polar Waters XBridge Amide column (250×4.6 mm, 3.5 μm) and an Alltech 2000ES ELSD-detector (40° C., gas flow 1.5 Lmin^−1), supplied with a gradient mixture of eluent A (acetonitrile, 0.2% triehtylamine) and eluent B (0.2% triethylamine): 90% solvent A (6 min), 10-25% solvent B (stepwise, 3% min^−1), 25% solvent B (20 min) and 90% solvent A (10 min). Concentrations of ingredients and respective yields were calculated according to standards of fructose, glucose and resveratrol 3-alpha-glucoside.

Sequence of Thermoanaerobacterium thermosaccharolyticum sucrose phosphorylase (TtSPP) variant R134V, SEQ ID No 2 (D9TT09 whole entry R134V): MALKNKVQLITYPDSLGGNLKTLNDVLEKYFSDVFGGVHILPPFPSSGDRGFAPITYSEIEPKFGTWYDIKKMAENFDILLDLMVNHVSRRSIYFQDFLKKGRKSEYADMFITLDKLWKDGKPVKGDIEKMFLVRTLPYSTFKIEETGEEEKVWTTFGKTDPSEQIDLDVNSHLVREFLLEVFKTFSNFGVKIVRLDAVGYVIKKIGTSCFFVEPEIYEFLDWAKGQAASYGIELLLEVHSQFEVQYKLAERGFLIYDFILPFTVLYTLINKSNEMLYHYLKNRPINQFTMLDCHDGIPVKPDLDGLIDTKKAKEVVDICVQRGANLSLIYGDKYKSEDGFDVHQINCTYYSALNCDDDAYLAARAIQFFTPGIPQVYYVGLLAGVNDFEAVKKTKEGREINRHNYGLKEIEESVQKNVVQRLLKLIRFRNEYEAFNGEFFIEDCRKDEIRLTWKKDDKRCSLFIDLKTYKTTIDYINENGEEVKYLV

Consider `OC[C@H]1O[C@@](CO)(O[C@H]2O[C@H](CO)[C@@H](O)[C@H](O)[C@H]2O)[C@@H](O)[C@@H]1O` [sucrose], for which the Km (as a rule, the substrate concentration at which the rate is half of its maximum) in data set [1] is 77 mM.

For `Oc1ccc(/C=C/c2cc(O)cc(O)c2)cc1` [resveratrol, trans-3,4′,5-trihydroxystilbene], the figures for the kcat in data set [2] and in data set [3] were 2.36 ± 0.25 s⁻¹ and 0.45 ± 0.02 s⁻¹, respectively.

B1: BaSP: wild-type thermostable sucrose phosphorylase of Bifidobacterium adolescentis (protein, UniProt A0ZZH6 1-504, looked up)
Sucrose phosphorylase: MKNKVQLITYADRLGDGTIKSMTDILRTRFDGVYDGVHILPFFTPFDGADAGFDPIDHTKVDERLGSWDDVAELSKTHNIMVDAIVNHMSWESKQFQDVLAKGEESEYYPMFLTMSSVFPNGATEEDLAGIYRPRPGLPFTHYKFAGKTRLVWVSFTPQQVDIDTDSDKGWEYLMSIFDQMAASHVSYIRLDAVGYGAKEAGTSCFMTPKTFKLISRLREEGVKRGLEILIEVHSYYKKQVEIASKVDRVYDFALPPLLLHALSTGHVEPVAHWTDIRPNNAVTVLDTHDGIGVIDIGSDQLDRSLKGLVPDEDVDNLVNTIHANTHGESQAATGAAASNLDLYQVNSTYYSALGCNDQHYIAARAVQFFLPGVPQVYYVGALAGKNDMELLRKTNNGRDINRHYYSTAEIDENLKRPVVKALNALAKFRNELDAFDGTFSYTTDDDTSISFTWRGETSQATLTFEPKRGLGVDNTTPVAMLEWEDSAGDHRSDDLIANPPVVA
Take B1: in data set [4], the “transglycosylation activity on quercetin” value is “neither had activity on quercetin”. For the same molecule, the “transglycosylation activity on resveratrol” value in data set [5] is “Neither of these enzymes display significant activity on resveratrol”.

B2: Thermoanaerobacterium thermosaccharolyticum sucrose phosphorylase (TtSPP) variant R134T, SEQ ID No 3 (Thermoanaerobacterium thermosaccharolyticum DSM 571; … (protein)
chain: MALKNKVQLITYPDSLGGNLKTLNDVLEKYFSDVFGGVHILPPFPSSGDRGFAPITYSEIEPKFGTWYDIKKMAENFDILLDLMVNHVSRRSIYFQDFLKKGRKSEYADMFITLDKLWKDGKPVKGDIEKMFLTRTLPYSTFKIEETGEEEKVWTTFGKTDPSEQIDLDVNSHLVREFLLEVFKTFSNFGVKIVRLDAVGYVIKKIGTSCFFVEPEIYEFLDWAKGQAASYGIELLLEVHSQFEVQYKLAERGFLIYDFILPFTVLYTLINKSNEMLYHYLKNRPINQFTMLDCHDGIPVKPDLDGLIDTKKAKEVVDICVQRGANLSLIYGDKYKSEDGFDVHQINCTYYSALNCDDDAYLAARAIQFFTPGIPQVYYVGLLAGVNDFEAVKKTKEGREINRHNYGLKEIEESVQKNVVQRLLKLIRFRNEYEAFNGEFFIEDCRKDEIRLTWKKDDKRCSLFIDLKTYKTTIDYINENGEEVKYLV
For B2, in data set [6], the Km was 56 ± 8 mM; the kcat – broadly, the number of substrate molecules converted per active site and unit of time at saturation – was determined as 0.08 ± 0.004 s⁻¹; the kcat/Km (usually the turnover number divided by the Michaelis constant) worked out at 1.4 ± 0.2 M⁻¹ s⁻¹.

B3: R134A: variant R134A of TtSPP sucrose phosphorylase from Thermoanaerobacterium thermosaccharolyticum (protein)
chain: MALKNKVQLITYPDSLGGNLKTLNDVLEKYFSDVFGGVHILPPFPSSGDRGFAPITYSEIEPKFGTWYDIKKMAENFDILLDLMVNHVSRRSIYFQDFLKKGRKSEYADMFITLDKLWKDGKPVKGDIEKMFLARTLPYSTFKIEETGEEEKVWTTFGKTDPSEQIDLDVNSHLVREFLLEVFKTFSNFGVKIVRLDAVGYVIKKIGTSCFFVEPEIYEFLDWAKGQAASYGIELLLEVHSQFEVQYKLAERGFLIYDFILPFTVLYTLINKSNEMLYHYLKNRPINQFTMLDCHDGIPVKPDLDGLIDTKKAKEVVDICVQRGANLSLIYGDKYKSEDGFDVHQINCTYYSALNCDDDAYLAARAIQFFTPGIPQVYYVGLLAGVNDFEAVKKTKEGREINRHNYGLKEIEESVQKNVVQRLLKLIRFRNEYEAFNGEFFIEDCRKDEIRLTWKKDDKRCSLFIDLKTYKTTIDYINENGEEVKYLV
modifications: mutant of sucrose phosphorylase of bacterium Thermoanaerobacterium thermosaccharolyticum
For the molecule B3, in data set [4], the “transglycosylation activity on quercetin” value is on record as “significant amounts of transglycosylation product could be detected”. In data set [7], the “activity on flavonoids and phenoxyphenols (acceptor promiscuity)” value is listed as “displayed activity on structures from all five major classes of flavonoids”. Moreover, the “resveratrol 3-alpha-glucoside produced” value in data set [8] worked out at 17.1 ± 0.6 g/L. For the same molecule, in data set [8] (FIG. 3), the “conversion of resveratrol (acceptor)” value was “complete conversion of the acceptor”. Further, in data set [5], the “transglycosylation activity on resveratrol” value was “retained more than half of its activity on resveratrol”.
